The labels stand for the following.
T1: nSR100 (Mus musculus, UniProt Q8BKA3)
T1 construct: host or cells: mouse N2A cells
T1 sequence (Q8BKA3 1-608): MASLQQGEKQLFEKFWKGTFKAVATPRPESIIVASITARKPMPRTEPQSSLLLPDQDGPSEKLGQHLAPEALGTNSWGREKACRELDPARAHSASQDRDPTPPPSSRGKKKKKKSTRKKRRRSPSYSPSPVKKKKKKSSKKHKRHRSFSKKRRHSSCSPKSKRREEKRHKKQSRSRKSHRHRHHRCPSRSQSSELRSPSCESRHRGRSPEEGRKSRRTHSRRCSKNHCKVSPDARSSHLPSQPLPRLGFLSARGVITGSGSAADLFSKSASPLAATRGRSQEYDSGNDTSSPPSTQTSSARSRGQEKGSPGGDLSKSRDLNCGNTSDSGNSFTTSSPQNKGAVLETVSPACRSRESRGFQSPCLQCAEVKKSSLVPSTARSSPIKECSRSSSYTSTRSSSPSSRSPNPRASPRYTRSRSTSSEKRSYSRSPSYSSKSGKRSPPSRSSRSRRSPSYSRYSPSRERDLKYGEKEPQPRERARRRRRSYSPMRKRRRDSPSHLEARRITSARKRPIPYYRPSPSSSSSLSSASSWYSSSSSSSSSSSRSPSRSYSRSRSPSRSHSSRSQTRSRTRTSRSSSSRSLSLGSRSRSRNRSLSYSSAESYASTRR

B1: Plk1 (protein, UniProt Q07832 1-603, looked up)
Serine/threonine-protein …: MNAAAKAGKLARAPADLGKGGVPGDAVPGAPVAAPLAKEIPEVLVDPRSRRQYVRGRFLGKGGFAKCFEISDADTKEVFAGKIVPKSLLLKPHQKEKMSMEISIHRSLAHQHVVGFHDFFEDSDFVFVVLELCRRRSLLELHKRRKALTEPEARYYLRQIVLGCQYLHRNQVIHRDLKLGNLFLNEDLEVKIGDFGLATKVEYEGERKKTLCGTPNYIAPEVLSKKGHSFEVDVWSIGCIMYTLLVGKPPFETSCLKETYLRIKKNEYSIPKHINPVAASLIQKMLQTDPTARPTIHELLNDEFFTSGYIPARLPITCLTIPPRFSIAPSSLDPSSRKPLKVLNKGVENPLPDRPREKEEPVVRETNEAIECHLSDLLQQLTSVNASKPSERGLVRQEEAEDPACIPIFWVSKWVDYSDKYGLGYQLCDNSVGVLFNDSTRLILYNDGDSLQYIERDGTESYLTVSSHPNSLMKKITLLNYFRNYMSEHLLKAGANITPREGDELARLPYLRTWFRTRSAIILHLSNGTVQINFFQDHTKLILCPLMAAVTYINEKRDFQTYRLSLLEEYGCCKELASRLRYARTMVDKLLSSRSASNRLKAS
B2: Wdr6 (protein, UniProt Q99ME2 1-1125, looked up)
tRNA …: MDAFGDYVWPRATSELILLPVTGLECVGDRLLAGEGPDLLVYNLDLGGHLRMVKRVQNLLGHFLIHGFRVRPEPKGDLDSEAMIAVFGSKGLKVVKVSWGQSHLRELWRSGLWNMSDWIWDVRWIEGNVAVALGHNSVVLYDPVIGCMLQDVPCTDRCTLSSACLVGDTWKELTIVAGAVSNELLIWYPATALTDNKPVAPDRRVSGHVGVIFSMSYLESKGLLATASEDRSVRLWKVGDLRVPGGRVQNIGHCFGHSARVWQVKLLENYLISAGEDCVCLVWSHEGEILQAFRGHRGRGIRAIATHERQAWVVTGGDDSGIRLWHLAGRGYPGLGVSSLSFKSPSRPGALKAVTLAGSWRVLAVTDVGSLYLYDLEVKSWEQLLEDNRFRSYCLLEAAPGPEGFGLCALANGEGLVKVVPINTPTAAVEQKLFQGKVHSLSWALRGYEELLLLASGPGGVIACLEISAAPTGKAIFVKERCRYLLPPSKQRWHTCSAFLPPGDFLVCGDRRGSVMLFPVRPCLFKKPGAGSKAITAAEAPGAGSGSGGSESVPTGIGPVSTLHSLHGKQGVTSVTCHGGYLYSTGRDSSYFQLFVHGGHLQPVLRQKACRGMNWVAGLRMVPDGSMVILGFHANEFVVWSPRSHEKLHIVNCGGGHRSWAFSDTEAAMAFTYLKDGEVMLYRALGGCIRPNVILREGLHGREITCVKRVGTVTLGPEFEVPNLEHPDSLEPGSEGPGLIDIVITGSEDTTVCVLALPTTTGSAHALTSVCNHISSVRALAVWAVGTPGGPQDTRPGLTAQVVSAGGRAEIHCFSVMVTPDASTPSRLACHVMHLSSHRLDEYWDRQRNKHKMIKVDPETRYMSLAICELDNDRPGLGPGPLVAAACSDGAVRLFLLQDSGRILHLLAESFHHKRCVLKVHSFTHEAPNQRRRLILCSAATDGSLAFWDLTTAMDKGSTTLELPAHPGLPYQMGTPSMTVQAHSCGVNSLHTLPTPEGHHLVASGSEDGSLHVFTLAVKMPEPEEADGEAELVPQLCVLEEYSVPCAHAAHVTGVKILSPKLMVSASIDQRLTFWRLGQGEPTFMNSTVYHVPDVADMDCWPVSPEFGHRCALAGQGLEVYNWYD
B3: Sf3b1 (protein, UniProt Q99NB9 1-1304, looked up)
Splicing factor 3B subunit 1: MAKIAKTHEDIEAQIREIQGKKAALDEAQGVGLDSTGYYDQEIYGGSDSRFAGYVTSIAATELEDDDDDYSSSTSLLGQKKPGYHAPVALLNDIPQSTEQYDPFAEHRPPKIADREDEYKKHRRTMIISPERLDPFADGGKTPDPKMNARTYMDVMREQHLTKEEREIRQQLAEKAKAGELKVVNGAAASQPPSKRKRRWDQTADQTPGATPKKLSSWDQAETPGHTPSLRWDETPGRAKGSETPGATPGSKIWDPTPSHTPAGAATPGRGDTPGHATPGHGGATSSARKNRWDETPKTERDTPGHGSGWAETPRTDRGGDSIGETPTPGASKRKSRWDETPASQMGGSTPVLTPGKTPIGTPAMNMATPTPGHIMSMTPEQLQAWRWEREIDERNRPLSDEELDAMFPEGYKVLPPPAGYVPIRTPARKLTATPTPLGGMTGFHMQTEDRTMKSVNDQPSGNLPFLKPDDIQYFDKLLVDVDESTLSPEEQKERKIMKLLLKIKNGTPPMRKAALRQITDKAREFGAGPLFNQILPLLMSPTLEDQERHLLVKVIDRILYKLDDLVRPYVHKILVVIEPLLIDEDYYARVEGREIISNLAKAAGLATMISTMRPDIDNMDEYVRNTTARAFAVVASALGIPSLLPFLKAVCKSKKSWQARHTGIKIVQQIAILMGCAILPHLRSLVEIIEHGLVDEQQKVRTISALAIAALAEAATPYGIESFDSVLKPLWKGIRQHRGKGLAAFLKAIGYLIPLMDAEYANYYTREVMLILIREFQSPDEEMKKIVLKVVKQCCGTDGVEANYIKTEILPPFFKHFWQHRMALDRRNYRQLVDTTVELANKVGAAEIISRIVDDLKDEAEQYRKMVMETIEKIMGNLGAADIDHKLEEQLIDGILYAFQEQTTEDSVMLNGFGTVVNALGKRVKPYLPQICGTVLWRLNNKSAKVRQQAADLISRTAVVMKTCQEEKLMGHLGVVLYEYLGEEYPEVLGSILGALKAIVNVIGMHKMTPPIKDLLPRLTPILKNRHEKVQENCIDLVGRIADRGAEYVSAREWMRICFELLELLKAHKKAIRRATVNTFGYIAKAIGPHDVLATLLNNLKVQERQNRVCTTVAIAIVAETCSPFTVLPALMNEYRVPELNVQNGVLKSLSFLFEYIGEMGKDYIYAVTPLLEDALMDRDLVHRQTASAVVQHMSLGVYGFGCEDSLNHLLNYVWPNVFETSPHVIQAVMGALEGLRVAIGPCRMLQYCLQGLFHPARKVRDVYWKIYNSIYIGSQDALIAHYPRIYNDDKNTYIRYDLDYIL
B4: Rnps1 (protein, UniProt Q99M28 1-305, looked up)
RNA-binding protein with …: MDLSGVKKKSLLGVKENNKKSSTRAPSPTKRKDRSDEKSKDRSKDKGATKESSEKDRGRDKTRKRRSASSGSSSTRSRSSSTSSSGSSTSTGSSSGSSSSSASSRSGSSSTSRSSSSSSSSGSPSPSRRRHDNRRRSRSKSKPPKRDEKERKRRSPSPKPTKVHIGRLTRNVTKDHIMEIFSTYGKIKMIDMPVERMHPHLSKGYAYVEFENPDEAEKALKHMDGGQIDGQEITATAVLAPWPRPPPRRFSPPRRMLPPPPMWRRSPPRMRRRSRSPRRRSPVRRRSRSPGRRRHRSRSSSNSSR
B5: Prpf4b (protein, UniProt Q61136 2-1007, looked up)
Serine/threonine-protein …: AATEPPSLREQAEMDDADNSEKSVNEENGEVSEDQSQNKHSRHKKKKHKHRSKHKKHKHSSEEDRDKKHKHKHKHKKHKRKEVIEASDKEGLSPAKRTKLDDLALLEDLEKQRALIKAELDNELMEGKVQSGMGLILQGYESGSEEEGEIHEKARNGNRSSTRSSSTRGKLEITDNKNSAKKRSKSRSKERTRHRSDKRKSKGAGEMLREKANRSKSKERRKSKSPSKRSKSQDQARKSKSPPLRRRSQEKVGKARSPAEEKMKSEEKGKIKDRKKSPIVNERSRDRSKKSKSPVDLRDKSKDRRSRSKERKSKRSEIDKEKKPIKSPSKDASSGKENRSPSRRPGRSPKRRSLSPKLRDKSRRSRSPLLNDRRSKQSKSPSRTLSPGRRAKSRSLERKRREPERRRLSSPRTRPRDDILGRCERSKDASPINRWSPTRRRSRSPIRRRSRSPLRRSRSPRRRSRSPRRRDRSRRSRSRLRRRSRSRGGHRRRSRSKVKEDKFKGSLSEGMKVEQESSSDDNLEDFDVEEEDEEALIEQRRIQRQAIVQKYKYLAEDSNISVPSEPSSPQSSTRSRSPSPDDILERVAADVKEYERENVDTFEASVKAKHNLMTVEQNNGSSQKKILAPDMFTESDDMFAAYFDSARLRAAGIGKDFKENPNLRDNWTDAEGYYRVNIGEVLDKRYNVYGYTGQGVFSNVVRARDNARANQEVAVKIIRNNELMQKTGLKELEFLKKLNDADPDDKFHCLRLFRHFYHKQHLCLVFEPLSMNLREVLKKYGKDVGLHIKAVRSYSQQLFLALKLLKRCNILHADIKPDNILVNESKTILKLCDFGSASHVADNDITPYLVSRFYRAPEIIIGKSYDYGIDMWSVGCTLYELYTGKILFPGKTNNHMLKLAMDLKGKMPNKMIRKGVFKDQHFDQNLNFMYIEVDKVTEREKVTVMSTINPTKDLLADLIGCQRLPEDQRKKVHQLKDLLDQILMLDPAKRISINQALQHAFIQEKI

This note sets out measurements from patent US10772928B2, “Modulation and detection of a neuronal alternative splicing regulatory network for treatment and diagnosis of neurological disorders” (The Governing Council of the University of Toronto, priority 2014, dated 2020).

The target of the first assay is T1, nSR100. As to the kind of experiment: AP-MS nSR100 interaction partners from mouse N2A cells (Table 5). Conditions: bait Srrm4. In kind it is binding.
Text: By applying affinity purification coupled to mass-spectrometry (AP-MS), several interaction nSR100 partner proteins were detected that provide insight into mechanisms of post-translational regulation of nSR100 levels.
As for B1, the “AvgP (average of the SAINT scores)” value came out at 1 and the “MaxP (maximal SAINT score)” value turned out to be 1.
On to B2, for which the “AvgP (average of the SAINT scores)” value stood at 1 and the “MaxP (maximal SAINT score)” value is on record as 1.
With B3, the “AvgP (average of the SAINT scores)” value is recorded as 1 and the “MaxP (maximal SAINT score)” value was determined as 1.
As for B4, the “AvgP (average of the SAINT scores)” value turned out to be 1 and the “MaxP (maximal SAINT score)” value amounted to 1.
For the molecule B5, the “AvgP (average of the SAINT scores)” value worked out at 1 and the “MaxP (maximal SAINT score)” value is 1.

Staying with this assay, now noted: bait Srrm4, 0.1 added to prevent division by 0.
For B1, the “FoldChange between the prey Avg spectra of the bait and control purifications” value was found to be 430.
On to B2, for which the “FoldChange between the prey Avg spectra of the bait and control purifications” value was 160.
Still for that read-out and setting: then B3, with 3.45; and B4, with 17; and B5, with 45.

Still in this assay, the particulars now being: bait Srrm4, 2 replicates.
For B1, the “AvgSpec (average number of spectra per replicate)” value is recorded as 43.
On the same count and under the same terms, then B2, with 16; and B3, with 112; and B4, with 25.5.
Take B5: the “AvgSpec (average number of spectra per replicate)” value is given as 4.5.

Staying with this assay, now noted: bait Srrm4, biological replicate 1 (first number of the cell), AP-MS.
For the molecule B1, the “Spectra (number of spectra for the prey in the purification of the bait)” value is 43|43.
Take B2: the “Spectra (number of spectra for the prey in the purification of the bait)” value was 13.
Still for that read-out and setting: then B3, with 92.
Consider B4, for which the “Spectra (number of spectra for the prey in the purification of the bait)” value is recorded as 26.
As for B5, the “Spectra (number of spectra for the prey in the purification of the bait)” value was found to be 4.

Staying with this assay, now noted: bait Srrm4, biological replicate 2 (second number of the cell), AP-MS.
For the molecule B1, the “Spectra (number of spectra for the prey in the purification of the bait)” value is listed as 43|43.
For B2, the “Spectra (number of spectra for the prey in the purification of the bait)” value stood at 19.
Turning to B3, the “Spectra (number of spectra for the prey in the purification of the bait)” value stood at 132.
The same measure, in the same setting: to B4 belongs 25.
Regarding B5, the “Spectra (number of spectra for the prey in the purification of the bait)” value was 5.

The assay is the same for the next values; noted with them: bait Srrm4, sum of spectra over 2 replicates.
B1 came in with a SpecSum of 86.
Still for that read-out and setting: to B2 belongs 32; to B3, 224.
Still for that read-out and setting: then B4, with 51; and B5, with 9.
